For experiment [1], the target named is T1, human podoplanin on cancer cells (glioblastoma LN319, lung cancer PC-10) (human, UniProt Q86YL7 23-162, sialylated O-glycan on Thr85 (as the filing concludes for podoplanin on cancer cells)).
T1 construct: Endogenous podoplanin on cancer cell lines LN319 and PC-10; also called hPDPN; cancer-type podoplanin
T1 chain: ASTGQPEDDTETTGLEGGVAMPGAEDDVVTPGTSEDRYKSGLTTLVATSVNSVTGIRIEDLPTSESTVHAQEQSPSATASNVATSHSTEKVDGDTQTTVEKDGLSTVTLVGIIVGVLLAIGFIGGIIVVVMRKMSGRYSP
As to the kind of experiment: flow cytometry, ExpiCHO culture supernatant on LN319 cells. The protocol: Plasmids of the H chain and the L chain of chPMab117-mG2a were introduced into ExpiCHO cell lines (product of Thermo Fisher) by lipofection and a recombinant antibody of chPMab117-mG2a was expressed in the culture supernatant. The culture supernatant was collected two days after gene introduction. It was reacted with LN 319 cells at 4° C. for 30 minutes and was then reacted further with an anti-mouse IgG-FITC antibody (product of Thermo Fisher) at 4° C. for 30 minutes. As a negative control, only a secondary antibody was used.

In another experiment the target is T2, human podoplanin D82A (human, UniProt Q86YL7 23-162).
T2 construct: Alanine point mutant tested by flow cytometry
T2 chain: T1 chain with D60A
The experiment in a line: flow cytometry, alanine scan 77-89.

A further experiment concerns the target T3, human podoplanin T85A (human, UniProt Q86YL7 23-162).
T3 chain: T1 chain with T63A
As to the kind of experiment: flow cytometry, alanine scan 77-89.

For the next experiment, the target named is T4, human podoplanin I80A (human, UniProt Q86YL7 23-162).
T4 construct: Alanine point mutant tested by flow cytometry
T4 chain: T1 chain with I58A
As to the kind of experiment: flow cytometry, alanine scan 77-89.

For another experiment, the target named is T5, human podoplanin E81A (human, UniProt Q86YL7 23-162).
T5 construct: Alanine point mutant tested by flow cytometry
T5 chain: T1 chain with E59A
As to the kind of experiment: flow cytometry, alanine scan 77-89.

A further experiment concerns the target T6, human podoplanin I78A (human, UniProt Q86YL7 23-162).
T6 construct: Alanine point mutant tested by flow cytometry
T6 chain: T1 chain with I56A
The experiment in a line: flow cytometry, alanine scan 77-89.

Where a chain is given by its changes, count along the chain named.

B1: mouse chimeric PMab-117 (chPMab117-mG2a) (antibody, mouse IgG2a, kappa)
heavy: AVQLVESGGGLVQPKESLKISCAASGFTFSNAAMYWVRQAPGKGLEWVARIRSKPNNYATYYTDSVKGRFTISRDDSKSMVHLQMDNLKTEDTAMYYCTVGGNNYAAAYWGQGTLVTVSSAKTTAPSVYPLAPVCGDTTGSSVTLGCLVKGYFPEPVTLTWNSGSLSSGVHTFPAVLQSDLYTLSSSVTVTSSTWPSQSITCNVAHPASSTKVDKKIEPRGPTIKPCPPCKCPAPNLLGGPSVFIFPPKIKDVLMISLSPIVTCVVVDVSEDDPDVQISWFVNNVEVHTAQTQTHREDYNSTLRVVSALPIQHQDWMSGKEFKCKVNNKDLPAPIERTISKPKGSVRAPQVYVLPPPEEEMTKKQVTLTCMVTDFMPEDIYVEWTNNGKTELNYKNTEPVLDSDGSYFMYSKLRVEKKNWVERNSYSCSVVHEGLHNHHTTKSFSRTPGK
light: DVVLTQTPVAQPVTLGDQASISCRSSQSLVHSNGNTYLEWYLQKPGQSPQLLIYKVSNRFSGVPDRFIGSGSGSDFTLKISRVEPEDLGVYYCFQVTHDPFTFGSGTKLEIKRADAAPTVSIFPPSTEQLATGGASVVCLMNNFYPRDISVKWKIDGTERRDGVLDSVTDQDSKDSTYSMSSTLSLTKADYESHNLYTCEVVHKTSSSPVVKSFNRNEC
notes: tested as ExpiCHO culture supernatant; no limits stated
B1: the binding result in experiment [1] is listed as “binds”.

B2: human chimeric PMab-117 (chPMab-117) (antibody, human IgG1)
heavy: not shown
light: DVVLTQTPVAQPVTLGDQASISCRSSQSLVHSNGNTYLEWYLQKPGQSPQLLIYKVSNRFSGVPDRFIGSGSGSDFTLKISRVEPEDLGVYYCFQVTHDPFTFGSGTKLEIKRGSAAPSVFIFPPSDEQLKSGTASVVCLLNNFYPREAKVQWKVDNALQSGNSQESVTEQDSKDSTYSLSSTLTLSKADYEKHKVYACEVTHQGLSSPVTKSFNRGEC
With B2, the binding result in the experiment with human podoplanin D82A, with human podoplanin T85A, in the experiment with human podoplanin I80A, with human podoplanin E81A and with human podoplanin I78A was “no binding (tested: 10 µg/mL)” in each case.

Source of the values: patent US20210115151A1 (TOHOKU UNIVERSITY, published 2021).
